Data on one substance can be found in article PMC4074040.

For the test, the target named is BBPLo, bilin-binding protein from Lonomia obliqua (a variant of lopap) (Lonomia obliqua). Kind of test: SEC; analytical gel filtration of recombinant, refolded BBPLo on Superdex 75, calibrated with standards (myoglobin, NP2, IPP, BSA); monomers to dimer.

Broadly, the stoichiometry N is the number of molecules, sites or subunits per partner or assembly. Take “BBPLo, bilin-binding protein from Lonomia obliqua (a variant of lopap) (natural protein)”: the stoichiometry N is 2.
